Assay results reported in article doi:10.1101/2024.12.17.628836.
Where “and” joins values, the source holds several entries; their conditions need not be identical. Identical values can stand only once.

Biological target: standard human 20S proteasome, immunopurified from HEK293-EBNA cells (human)
Assay: mass photometry

percent of total 20S bound at a PA200:20S molar ratio of 8: > 60%
stoichiometry N (PA200 per 20S): 1 and 2
Substance: recombinant human PA200 (proteasome activator 200) (from UniProt Q14997 1-1843) (natural protein)
